Target: Linear di-ubiquitin (UniProt P0CG48 1-76; P0CG48 1-76)
Assay: crystal structure

B1: N4BP1 CUE-like domain (Q845-D893) (domain or fragment, UniProt Q6A037 845-893, looked up)
chain: QRSSAETSELREALLKIFPDSEQKLKIDQILAAHPYMKDLNALSALVLD
  binding result: binds

— paper PMC11096006 (Immunity, 2024)
